Results published in publication doi:10.1101/2020.07.28.225359 (bioRxiv, 2020).
One block for each molecule: values may come before it.

Legend:
[1] = molecular target: TRIM21 coiled-coil (CC235) (human) (UniProt P19474); assay: SEC-MALS
[2] = molecular target: TRIM21 coiled-coil (CC235) (human) (UniProt P19474); assay: ITC
[3] = molecular target: the molecule itself; assay: SAXS

stoichiometry N [1]: 2 | Kd [2]: 7 µM | dH (dimer dissociation) [2]: 65 kcal/mol
Molecule: TRIM21 coiled-coil (CC235) (from UniProt P19474 132-235) (domain or fragment)

B1: MBP-T21CC (MBPCC235) (domain or fragment, human, UniProt P19474 132-235, looked up)
chain: AQEYQEKLQVALGELRRKQELAEKLEVEIAIKRADWKKTVETQKSRIHAEFVQQKNFLVEEEQRQLQELEKDEREQLRILGEKEAKLAQQSQALQELISELDRR
stoichiometry N [3]: 2
